According to patent publication US11319601B2, “Cell based assay” (Medical Diagnostic Laboratories, L.L.C., priority 2017, dated 2022):
Entries after “also recorded” stand apart in the source; their conditions may differ.

Assays:
[1] = molecular target: T1, P780ins HER2 receptor (Homo sapiens, UniProt P04626, INS780GSP); assay: HER2 reporter cells transfected with linear expression cassette of P780ins HER2, all-in-one method; type: cell-based; details: all-in-one method
T1 construct: expressed in transfected cells; host or cells: HER2 reporter cells (clone #1)
Description: P780ins corresponds to an insertion mutation of HER2, which adds 3 amino acids (GSP) after the amino acid position of […] (Proline—P). In order to functionally characterize this mutation, PCR-mediated overlapping extension was employed to construct linear expression cassette of HER2 carrying this insertion. The linear expression cassette of mutant HER2 DNA was first transfected into the reporter cells followed by treatment with NRG1 and its inhibitors using the “all-in-one” method. The luciferase reporter activity was measured 24 hours post-transfection.

[2] = molecular target: T2, wild-type HER2 receptor (Homo sapiens, UniProt P04626); assay: HER2 reporter cells (clone #1) transfected with wild-type HER2, 384-well plate; type: cell-based
T2 construct: expressed in transfected cells
Method: Clone #1 is alternately referred to as the “HER2 reporter cells”. These cells were transiently transfected with the wild-type, constitutively active or kinase-dead forms of HER2 receptors in the 384-well format. After 24 hours, the transfected cells were treated with NRG1. The luciferase reporter activity of the transfected cells was measured by Nano-Glo® Luciferase Assay (Promega). […] The reporter activity of the transfected cells expressing the wild-type form of HER2 receptor was activated upon treatment with NRG1 (FIG. 25). When the cells were transfected with the constitutively active form of HER2 receptor, the reporter activity was activated in the absence of NRG1. However, no activation of reporter was detected when the cells were transfected with the kinase-dead form of HER2 receptor.
The HER2 reporter cells were first transfected with 100 ng of linear expression cassette of HER2. NRG1 was added to the cells 24 hours post-transfection. […] A robust reporter signal was detected even at 2.5 ng/ml of NRG1.
To further reduce the assay turnaround time, different stimulation methods were explored. The first method evaluated was Example 9d which was performed by addition of NRG1 to the cells 24 hours post-transfection for 4, 6 and 24 hours. […] The reporter activity was measured 24 hours post-transfection (FIG. 27A). […]

[3] = system: HER2 and HER3 receptors; assay: ERK-Luc / JNK-Luc / 6×JNK-Luc reporters in HEK293 cells with HER3 and HER2, treated with NRG1; type: cell-based, human; details: HER3 plus wild-type or kinase-dead HER2; HEK293
Method: (§1) In order to characterize the specificity of activation of ERK-Luc and JNK-Luc reporters upon treatment of HER3 ligand, ERK-Luc or JNK-Luc was co-transfected with expression plasmids of HER3 and wild-type or kinase-dead HER2 receptors into the HEK293 cells. After 24 hours, the transfected cells were treated with NRG1 (HER3 receptor ligand). The luciferase reporter activity of the transfected cells was measured by Nano-Glo® Luciferase Assay (Promega). In FIG. 13A, no difference in ERK-Luc reporter activity was found between the cells transfected with wild-type HER2 and kinase-dead HER2 after the treatment of NRG1. […] However, the activity of JNK-Luc reporter was reduced in the cells transfected with kinase-dead HER2 compared to the cells transfected with wild-type HER2 (FIG. 13B).
(§2) In order to examine the dose response of NRG1 in the activation of JNK-Luc reporters, JNK-Luc with expression plasmids of HER3 and wild-type HER2 receptors were co-transfected into the HEK293 cells. After 24 hours, the transfected cells were treated with a serial dilution of NRG1 (HER3 receptor ligand) for 6 hours. The luciferase reporter activity of the transfected cells was measured by Nano-Glo® Luciferase Assay (Promega).
(§3) In the previous example, the JNK-Luc reporter contained 3 copies of AP-1 binding site. We observed around 2.6 fold induction of reporter activity when the transfected cells were treated with 100 ng/ml of NRG1 (FIG. 14). In order to enhance the activation of reporter activity, the AP-1 binding site was increased from 3 copies to 6 copies. 6×JNK-Luc was co-transfected with expression plasmids of HER3 and wild-type HER2 receptors into the HEK293 cells. After 24 hours, the transfected cells were treated with 100 ng/ml of NRG1 (HER3 receptor ligand) for 6 hours. The luciferase reporter activity of the transfected cells was measured by Nano-Glo® Luciferase Assay (Promega). In FIG. 15, the 6×JNK-Luc reporter was activated by the treatment of NRG1 only when both HER2 and HER3 receptors were expressed (FIG. 15). Approximately a 4.2 fold induction of reporter activity was found.
(§4) For cell transfection experiments, HEK293 cells (ATCC) were plated at density of 4-8×10^4 cells per well (96-well plates) or 1-2×10^4 cells per well (384-well plates) in phenol red-free MEM containing 10% FBS and antibiotics. Either DNA plasmid or linear DNA was mixed with TransIT-293 transfection reagent (Mirus Bio LLC). Once cells were trypsinized, DNA transfection mix was added. The cells were then incubated for 24 or 48 hours.

[4] = molecular target: T3, HER2 and HER3 receptors (Homo sapiens, UniProt P04626+P21860); assay: as above; type: cell-based
T3 construct: expressed in transfected cells; host or cells: HEK293
Method: as §1, §2, §3, §4

[5] = system: HER1, HER2 and HER3 receptors; assay: ERK-Luc, JNK-Luc and NFkB-Luc reporters in HEK293 cells co-transfected with HER1, HER2 and HER3, treated with ligand; type: cell-based, human; details: ligand 6 hours; HER1, HER2, HER3 co-transfected HEK293
Method: In order to identify reporters to measure the activity of HER2 receptor, expression plasmids of HER1, HER2 and HER3 were co-transfected with different reporter constructs, including ERK-Luc, JNK-Luc and NFkB-Luc, into the HEK293 cells. After 24 hours, the transfected cells were treated with either EGF (HER1 receptor ligand) or NRG1 (HER3 receptor ligand) for 6 hours. The luciferase reporter activity of the transfected cells was measured by Nano-Glo® Luciferase Assay (Promega). […] JNK-Luc reporter was activated when the transfected cells were treated with either HER1 or HER3 ligand (FIG. 11B).
as §4

response of mutant HER2 reporter activity to ligand [1]: independent | induction of 6×JNK-Luc reporter activity ([4]; 100 ng/ml of NRG1, 6 hours, HEK293 with HER2 and HER3): ~4.2 fold | induction of JNK-Luc reporter activity (3 copies of AP-1 binding site) ([4]; 100 ng/ml of NRG1, HEK293 with HER2 and HER3): around 2.6 fold
Substance: NRG1: neuregulin-1, HER3 receptor ligand
reporter activation by ligand [2]: activated; also recorded: dose-dependent response; also recorded: good dose response; also recorded: dose dependent manner | ERK-Luc reporter activation [3]: effectively activated | JNK-Luc reporter activation ([4]; HER3 plus HER2, HEK293, serial dilution 6 hours): activated JNK-Luc reporter in a HER2's kinase dependent manner; also recorded: dose dependent activation | ERK-Luc reporter activation [5]: activated | JNK-Luc reporter activation [5]: activated | NFkB-Luc reporter activation [5]: no activation
